The supplement of paper PMC7877785
± gives the uncertainty stated by the source.

Assay: self-splicing fitness, log relative to wild type (ln ratio); higher = more splicing; Tetrahymena group I intron in knt gene, E. coli kanamycin selection, DiMSum; sequences stand for … in CUCUCU…GGAGGGAAAAGUUAUCAGGCAUGCACCUGGUAGCUAGUCUUUAAACCAAUAGAUUGCAUCGGUUUAAAAGGCAAGACCGUCAAAUUGCGGGAAAGGGGUCAACAGCCGUUCAGUACCAAGUCUCAGGGGAAACUUUGAGAUGGCCUUGCAAAGGGUAUGGUAAUAAGCUGACGGACAUGGUCCUAACCACGCAGCCAAGUCCUAAGUCAACAGAUCUUCUGUUGAUAUGGAUGCAGUUCACAGACUAAAUGUCGGUCGGGGAAGAUGUAUUCUUCUCAUAAGAUAUAGUCGGACCUCUCCUUAAUGGGAGCUAGCGGAUGAAGUGAUGCAACACUGGAGCCGCUGGGAACUAAUUUGUAUGCGAAAGUAUAUUGAUUAGUUUUGGAGUACUCGUGGUCG
In short: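 Fitness was computed with DiMSum as the error-weighted combination of replicate fold changes, kanamycin versus none, each normalised to wild type. The library randomised all eight intron nucleotides of the P1ex region, with the intron placed in the knt kanamycin-resistance gene on pET-22b(+) in E. coli BL21(DE3). Six replicate transformations were grown overnight at 37°C or 30°C on LB agar with or without 25 μg/mL kanamycin, plus 100 μg/mL carbenicillin, 50 μM IPTG and 0.2% rhamnose. Pooled colonies were amplicon-sequenced on an Illumina HiSeq 2500.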

Row | Sequence | self-splicing fitness (ln) (37 °C) | self-splicing fitness (ln) (30 °C)
1 | GCGUAGCAAUAUUACGCUUA | -2.06 ± 0.32 | –
2 | GCGUAGCAAUAUUACGGGGU | -1.86 ± 0.12 | -3.95 ± 0.19
3 | GCGUAGCAAUAUUACGGGUA | -0.91 ± 0.098 | -1.56 ± 0.11
4 | GCGUAGCAAUAUUACGGUCG | -1.07 ± 0.27 | -0.963 ± 0.16
5 | GCGUAGCAAUAUUACGGUGC | -2.95 ± 0.47 | -3.73 ± 0.32
6 | GCGUAGCAAUAUUACGGUUA | -0.119 ± 0.09 | -0.359 ± 0.1
7 | GCGUAGCAAUAUUACGUAAU | -0.693 ± 0.32 | –
8 | GCGUAGCAAUAUUACGUCCU | -0.8 ± 0.15 | -1.47 ± 0.14
9 | GCGUAGCAAUAUUACGUCGU | -2.04 ± 0.18 | -2.13 ± 0.12
10 | GCGUAGCAAUAUUACGUUAC | -2.37 ± 0.32 | -2.56 ± 0.23
11 | GCGUAGCAAUAUUACGUUCU | -1.38 ± 0.15 | -2.08 ± 0.13
12 | GCUAAGCAAUAUUACGAAGC | -0.413 ± 0.23 | -3.24 ± 0.25
13 | GCUAAGCAAUAUUACGAAGU | -3.01 ± 0.34 | -3.47 ± 0.17
14 | GCUAAGCAAUAUUACGACGU | 0.155 ± 0.19 | -0.0363 ± 0.17
15 | GCUAAGCAAUAUUACGACUU | -0.0273 ± 0.098 | -0.326 ± 0.09
16 | GCUAAGCAAUAUUACGAGGG | -1.64 ± 0.16 | -2.18 ± 0.14
17 | GCUAAGCAAUAUUACGAUCA | -0.823 ± 0.093 | -1.29 ± 0.11
18 | GCUAAGCAAUAUUACGAUCU | 0.178 ± 0.14 | -0.886 ± 0.13
19 | GCUAAGCAAUAUUACGAUUU | 0.0848 ± 0.075 | -0.73 ± 0.065
20 | GCUAAGCAAUAUUACGCACU | 0.421 ± 0.11 | -0.54 ± 0.071
21 | GCUAAGCAAUAUUACGCCGG | -1.33 ± 0.19 | -2.65 ± 0.2
22 | GCUAAGCAAUAUUACGCUGC | – | -3.12 ± 0.34
23 | GCUAAGCAAUAUUACGCUUU | -1.71 ± 0.15 | -3.06 ± 0.15
24 | GCUAAGCAAUAUUACGGAAC | -0.743 ± 0.1 | -1.46 ± 0.093
25 | GCUAAGCAAUAUUACGGCCA | -1.58 ± 0.2 | -0.635 ± 0.2

Row | Sequence | self-splicing fitness (ln) (37 °C) | self-splicing fitness (ln) (30 °C)
26 | GCUAAGCAAUAUUACGGCUU | -0.973 ± 0.16 | -0.732 ± 0.1
27 | GCUAAGCAAUAUUACGGGAC | -1.53 ± 0.14 | -2.81 ± 0.13
28 | GCUAAGCAAUAUUACGGGCG | 0.183 ± 0.14 | -0.341 ± 0.12
29 | GCUAAGCAAUAUUACGGGGU | -3.04 ± 0.25 | -2.06 ± 0.18
30 | GCUAAGCAAUAUUACGUCAU | 0.727 ± 0.12 | -1.7 ± 0.095
31 | GCUAAGCAAUAUUACGUGAG | -0.28 ± 0.071 | -0.321 ± 0.06
32 | GCUAAGCAAUAUUACGUGCC | -2.35 ± 0.23 | -3.59 ± 0.24
33 | GCUAAGCAAUAUUACGUGCG | 0.103 ± 0.1 | -1.07 ± 0.086
34 | GCUAAGCAAUAUUACGUGUU | -0.774 ± 0.093 | -1.78 ± 0.072
35 | GCUAAGCAAUAUUACGUUGC | -1.71 ± 0.38 | -2.26 ± 0.46
36 | GCUCAGCAAUAUUACGACAA | -1.42 ± 0.21 | -1.6 ± 0.15
37 | GCUCAGCAAUAUUACGAGUG | -0.148 ± 0.092 | -1.21 ± 0.063
38 | GCUCAGCAAUAUUACGAUCA | -0.164 ± 0.17 | -0.7 ± 0.19
39 | GCUCAGCAAUAUUACGAUUA | -0.287 ± 0.08 | -0.516 ± 0.072
40 | GCUCAGCAAUAUUACGCAUC | -0.186 ± 0.087 | -0.653 ± 0.079
41 | GCUCAGCAAUAUUACGCCGU | -1.61 ± 0.22 | -0.521 ± 0.14
42 | GCUCAGCAAUAUUACGCGUC | -0.379 ± 0.12 | -0.866 ± 0.1
43 | GCUCAGCAAUAUUACGGAGC | -1.82 ± 0.44 | –
44 | GCUCAGCAAUAUUACGGAGG | -0.504 ± 0.091 | -1.44 ± 0.08
45 | GCUCAGCAAUAUUACGGCAA | -1.1 ± 0.17 | -1.98 ± 0.16
46 | GCUCAGCAAUAUUACGGCGA | -1.36 ± 0.19 | -1.73 ± 0.12
47 | GCUCAGCAAUAUUACGGCGC | -0.248 ± 0.12 | -1.44 ± 0.085
48 | GCUCAGCAAUAUUACGGGAC | -0.928 ± 0.26 | -0.927 ± 0.27
49 | GCUCAGCAAUAUUACGGUAC | -0.709 ± 0.15 | -0.486 ± 0.13
50 | GCUCAGCAAUAUUACGUACU | -0.636 ± 0.086 | -0.953 ± 0.087

Row | Sequence | self-splicing fitness (ln) (37 °C) | self-splicing fitness (ln) (30 °C)
51 | GCUCAGCAAUAUUACGUCCA | -0.711 ± 0.13 | -1.28 ± 0.11
52 | GCUCAGCAAUAUUACGUGCA | -0.787 ± 0.1 | -1.12 ± 0.097
53 | GCUCAGCAAUAUUACGUUCU | -0.195 ± 0.09 | -0.649 ± 0.074
54 | GCUGAGCAAUAUUACGAGCC | – | -1.55 ± 0.43
55 | GCUGAGCAAUAUUACGAGGU | -1.74 ± 0.22 | -3.72 ± 0.29
56 | GCUGAGCAAUAUUACGCAAC | -2.11 ± 0.37 | -2.18 ± 0.24
57 | GCUGAGCAAUAUUACGCAUG | -1.92 ± 0.17 | -2.68 ± 0.13
58 | GCUGAGCAAUAUUACGCCUA | -0.595 ± 0.2 | -1.55 ± 0.32
59 | GCUGAGCAAUAUUACGCUGA | -1.15 ± 0.17 | -2.99 ± 0.2
60 | GCUGAGCAAUAUUACGCUUC | -3.41 ± 0.39 | -2.38 ± 0.15
61 | GCUGAGCAAUAUUACGGACA | -0.488 ± 0.17 | -2.53 ± 0.2
62 | GCUGAGCAAUAUUACGGCUU | – | -2.37 ± 0.24
63 | GCUGAGCAAUAUUACGGGAA | -2.02 ± 0.21 | -4.56 ± 0.42
64 | GCUGAGCAAUAUUACGGGCG | 0.15 ± 0.15 | -1.83 ± 0.14
65 | GCUGAGCAAUAUUACGGGUC | -1.36 ± 0.24 | -4.37 ± 0.46
66 | GCUGAGCAAUAUUACGGGUU | -3.05 ± 0.13 | -3.5 ± 0.15
67 | GCUGAGCAAUAUUACGGUUC | -1.69 ± 0.15 | -2.48 ± 0.14
68 | GCUGAGCAAUAUUACGUCAA | – | -3.38 ± 0.47
69 | GCUGAGCAAUAUUACGUGGG | -2.36 ± 0.26 | -2.02 ± 0.16
70 | GCUGAGCAAUAUUACGUGUA | -3.02 ± 0.32 | -2.4 ± 0.21
71 | GCUUAGCAAUAUUACGAACA | -0.519 ± 0.19 | -1.38 ± 0.16
72 | GCUUAGCAAUAUUACGAACU | 0.0658 ± 0.1 | -0.838 ± 0.08
73 | GCUUAGCAAUAUUACGACUU | 0.248 ± 0.1 | 0.0581 ± 0.092
74 | GCUUAGCAAUAUUACGAGGU | -2.55 ± 0.18 | -4.11 ± 0.21
75 | GCUUAGCAAUAUUACGAGUA | -0.0404 ± 0.14 | -1.37 ± 0.16

Row | Sequence | self-splicing fitness (ln) (37 °C) | self-splicing fitness (ln) (30 °C)
76 | GCUUAGCAAUAUUACGAGUC | -2.22 ± 0.22 | -2.18 ± 0.16
77 | GCUUAGCAAUAUUACGAUUC | 0.0621 ± 0.13 | -0.128 ± 0.12
78 | GCUUAGCAAUAUUACGCAAC | -0.318 ± 0.13 | -2.43 ± 0.22
79 | GCUUAGCAAUAUUACGCCAG | -1.76 ± 0.33 | -1.89 ± 0.33
80 | GCUUAGCAAUAUUACGCGUC | -0.88 ± 0.13 | -0.947 ± 0.13
81 | GCUUAGCAAUAUUACGGAAA | -0.752 ± 0.17 | -2.37 ± 0.25
82 | GCUUAGCAAUAUUACGGAUA | -1.71 ± 0.31 | -2.7 ± 0.39
83 | GCUUAGCAAUAUUACGGAUC | 0.437 ± 0.11 | -0.319 ± 0.092
84 | GCUUAGCAAUAUUACGGCUG | -2.21 ± 0.28 | -3.18 ± 0.28
85 | GCUUAGCAAUAUUACGGGUG | -0.144 ± 0.075 | -0.826 ± 0.059
86 | GCUUAGCAAUAUUACGGUUC | -0.185 ± 0.12 | -0.635 ± 0.098
87 | GCUUAGCAAUAUUACGUCAU | -0.965 ± 0.12 | -2.19 ± 0.14
88 | GGAAAGCAAUAUUACGAAAU | -1 ± 0.41 | -1.52 ± 0.3
89 | GGAAAGCAAUAUUACGAAUC | -1.5 ± 0.17 | -1.73 ± 0.14
90 | GGAAAGCAAUAUUACGACGA | 0.0265 ± 0.16 | -0.602 ± 0.13
91 | GGAAAGCAAUAUUACGAGCU | 0.478 ± 0.12 | -0.199 ± 0.11
92 | GGAAAGCAAUAUUACGAGGG | -2.54 ± 0.16 | -3.74 ± 0.17
93 | GGAAAGCAAUAUUACGCCCA | 0.325 ± 0.23 | 0.064 ± 0.16
94 | GGAAAGCAAUAUUACGCUCU | – | -3.11 ± 0.33
95 | GGAAAGCAAUAUUACGGAUA | -1.55 ± 0.19 | -2.59 ± 0.21
96 | GGAAAGCAAUAUUACGGAUG | -2.18 ± 0.21 | -2.54 ± 0.17
97 | GGAAAGCAAUAUUACGGCAG | -3.11 ± 0.43 | -1.79 ± 0.21
